Among the data in US20130108636A1 are fold decrease in binding compared to m36 values, retold here.

This assay has as its target gp120s. Put plainly: binding assay, method not stated.

B1: m36d1 (VHH)
chain: QVQLVQSGGGLVQPGGSLRLSCAASAFDFSDYEMSWVRQAPGKGLEWIGEINDSGNTIYNPSLKSRVTISRDNSKNTLYLQMNTLRAEDTAIYYCAIYGGNSGGEYWGQGTLVTVSSGGGGSGGGGSGGGGSQVQLVQSGGGLVQPGGSLRLSCAASAFDFSDYEMSWVRQAPGKGLEWIGEINDSGNTIYNPSLKSRVTISRDNSKNTLYLQMNTLRAEDTAIYYCAIYGGNSGGEYWGQGTLVTVSS
As for B1, the fold decrease in binding compared to m36 came to 16 fold.
